Results taken from PMC6272748, “Cysteine Specific Targeting of the Functionally Distinct Peroxiredoxin and Glutaredoxin Proteins by the Investigational Disulfide BNP7787” (Molecules, 2015).

Target: the molecule itself
Assay: crystal structure; co-crystal of BNP7787-modified Prx 4 from 1.6 M ammonium sulfate, 0.1 M MES pH 6.5, 10% dioxane; 2.3 Å, space group C2; five molecules in the asymmetric unit, decamer generated by crystal symmetry

B1: human peroxiredoxin 4 (Prx 4) carrying a BNP7787-derived mesna adduct (enzyme, UniProt Q13162 79-271, looked up)
chain: AKISKPAPYWEGTAVIDGEFKELKLTDYRGKYLVFFFYPLDFTFVCPTEIIAFGDRLEEFRSINTEVVACSVDSQFTHLAWINTPRRQGGLGPIRIPLLSDLTHQISKDYGVYLEDSGHTLRGLFIIDDKGILRQITLNDLPVGRSVDETLRLVQAFQYTDKHGEVCPAGWKPGSETIIPDPAGKLKYFDKLN
modifications: BNP7787-derived mesna mixed disulfide on Cys 124 (in all molecules of the decamer); whole protein mass spectrometry consistent with two mesna adducts, the second proposed on Cys 245 (not visible in the electron density)
notes: Peroxiredoxin 4, human, wild type; No density beyond residue 242 in the crystal; TEV cleavage is described only for Grx 1; also called Prx IV; BNP7787-modified Prx 4; source: E. coli BL21(RIPL), purified (Ni2+ IMAC, size exclusion), reduced with DTT, then incubated with 40 mM BNP7787; copies: 10
  stoichiometry N: 10
